Measurements published in paper PMC6347470 (Immunity, 2018).

Molecular target: the molecule itself
Test: nonreducing PAGE and immunoblotting

B1: STING (natural protein, mouse (endogenous in BMDMs), UniProt Q3TBT3 1-378, looked up)
chain: MPYSNLHPAIPRPRGHRSKYVALIFLVASLMILWVAKDPPNHTLKYLALHLASHELGLLLKNLCCLAEELCHVQSRYQGSYWKAVRACLGCPIHCMAMILLSSYFYFLQNTADIYLSWMFGLLVLYKSLSMLLGLQSLTPAEVSAVCEEKKLNVAHGLAWSYYIGYLRLILPGLQARIRMFNQLHNNMLSGAGSRRLYILFPLDCGVPDNLSVVDPNIRFRDMLPQQNIDRAGIKNRVYSNSVYEILENGQPAGVCILEYATPLQTLFAMSQDAKAGFSREDRLEQAKLFCRTLEEILEDVPESRNNCRLIVYQEPTDGNSFSLSQEVLRHIRQEEKEEVTMNAPMTSVAPPPSVLSQEPRLLISGMDQPLPLRTDLI
stoichiometry N: 2
